# Results as given in patent publication US20140221281A1 (Sanofi, published 2014).
# Read-outs that look alike come from different tables or passages of the source. *1 amine or outer side, *2 acyl side, *3 side chain or, on linkers, in order; H or OH if unused. Where no end group is shown, it is not given here. Side-chain parts run from the residue outwards. [ ]: non-standard residue; d: D form. The star is where a group is joined. γGlu = O=C(O)[C@H](CCC(=O)[*:2])N[*:1]; Stearoyl = CCCCCCCCCCCCCCCCCC(=O)*; Palmitoyl = CCCCCCCCCCCCCCCC(=O)*; αMeOrn = C[C@](N)(CCCN)C(=O)O; αMeK = C[C@](N)(CCCCN)C(=O)O; Aib = CC(C)(N)C(=O)O
# T1: human GIP receptor (human, UniProt P48546 22-466)
# T1 sequence (looked up): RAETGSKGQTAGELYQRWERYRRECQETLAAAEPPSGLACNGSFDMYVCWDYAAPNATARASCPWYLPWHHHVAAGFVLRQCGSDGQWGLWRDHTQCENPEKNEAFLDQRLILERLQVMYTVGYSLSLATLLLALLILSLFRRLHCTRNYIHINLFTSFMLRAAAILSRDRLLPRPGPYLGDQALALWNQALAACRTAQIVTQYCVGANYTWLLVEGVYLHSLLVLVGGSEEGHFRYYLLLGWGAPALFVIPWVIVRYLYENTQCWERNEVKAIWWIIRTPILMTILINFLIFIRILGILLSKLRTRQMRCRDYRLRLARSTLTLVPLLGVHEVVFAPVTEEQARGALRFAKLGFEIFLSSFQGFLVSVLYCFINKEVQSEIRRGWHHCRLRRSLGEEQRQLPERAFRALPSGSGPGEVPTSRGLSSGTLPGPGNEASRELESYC
# Tests used:
# Assay in all cases: cell-based or functional assay
# human GLP-1 receptor [1] = target: T2, human GLP-1 receptor (human, UniProt P43220 24-463)
# Target sequence in this assay (P43220 24-463): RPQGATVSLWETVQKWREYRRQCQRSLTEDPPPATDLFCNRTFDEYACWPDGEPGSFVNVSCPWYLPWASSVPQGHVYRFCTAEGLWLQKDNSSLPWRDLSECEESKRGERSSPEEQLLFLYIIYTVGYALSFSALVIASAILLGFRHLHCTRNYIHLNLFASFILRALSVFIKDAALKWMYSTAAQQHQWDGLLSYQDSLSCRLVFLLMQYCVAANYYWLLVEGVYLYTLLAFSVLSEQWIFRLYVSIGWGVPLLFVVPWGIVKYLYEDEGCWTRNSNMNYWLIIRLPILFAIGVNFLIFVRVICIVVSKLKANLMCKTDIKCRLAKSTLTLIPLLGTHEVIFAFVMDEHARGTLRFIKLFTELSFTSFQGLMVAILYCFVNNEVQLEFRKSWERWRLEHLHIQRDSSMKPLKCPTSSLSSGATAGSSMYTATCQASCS
# human GIP receptor [2] = target: T1, human GIP receptor
# human GLP-1 receptor [3] = target: T2, human GLP-1 receptor; remark: listed apart in the source
# human GIP receptor [4] = target: T1, human GIP receptor; remark: listed apart in the source
# human glucagon receptor = human glucagon receptor (human, UniProt P47871 26-477)
# Sequence of human glucagon receptor (P47871 26-477): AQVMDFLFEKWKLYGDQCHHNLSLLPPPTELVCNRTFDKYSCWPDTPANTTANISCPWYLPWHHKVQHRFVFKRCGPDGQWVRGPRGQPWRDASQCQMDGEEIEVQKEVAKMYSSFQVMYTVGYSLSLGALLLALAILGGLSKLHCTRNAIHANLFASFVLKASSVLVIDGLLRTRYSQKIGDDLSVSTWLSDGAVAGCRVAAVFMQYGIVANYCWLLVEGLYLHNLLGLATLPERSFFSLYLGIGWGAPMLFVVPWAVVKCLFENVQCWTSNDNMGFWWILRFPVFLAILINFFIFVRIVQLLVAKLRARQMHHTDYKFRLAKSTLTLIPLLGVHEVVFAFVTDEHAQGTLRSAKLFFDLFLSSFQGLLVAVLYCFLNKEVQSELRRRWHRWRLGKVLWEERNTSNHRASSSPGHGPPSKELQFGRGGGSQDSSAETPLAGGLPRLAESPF
# human GLP-1 receptor [5] = target: T2, human GLP-1 receptor; remark: listed apart in the source
# human GIP receptor [6] = target: T1, human GIP receptor; remark: listed apart in the source
binder,measurement,setting,value
YAEGTFTSDVSIYLEGQAAKEFIAWLVKGR-NH2 [Tyr(1)Ile(12)-GLP1],EC50 hGLP-1 R [pM] (cAMP formation),human GLP-1 receptor [1],5 pM
same,EC50 hGIP R [pM] (cAMP formation),human GIP receptor [2],3660 pM
Y[Aib]EGTFTSDLSIQK([γGlu-Palmitoyl])EERAA[αMeK]EFIEWLKNTGPSSGAPPPS-NH2 (N-terminus assumed; SMILES CCCCCCCCCCCCCCCC(=O)N[C@@H](CCC(=O)NCCCC[C@H](NC(=O)[C@H](CCC(N)=O)NC(=O)[C@@H](NC(=O)[C@H](CO)NC(=O)[C@H](CC(C)C)NC(=O)[C@H](CC(=O)O)NC(=O)[C@H](CO)NC(=O)[C@@H](NC(=O)[C@H](Cc1ccccc1)NC(=O)[C@@H](NC(=O)CNC(=O)[C@H](CCC(=O)O)NC(=O)C(C)(C)NC(=O)[C@@H](N)Cc1ccc(O)cc1)[C@@H](C)O)[C@@H](C)O)[C@@H](C)CC)C(=O)N[C@@H](CCC(=O)O)C(=O)N[C@@H](CCC(=O)O)C(=O)N[C@@H](CCCNC(=N)N)C(=O)N[C@@H](C)C(=O)N[C@@H](C)C(=O)N[C@@](C)(CCCCN)C(=O)N[C@@H](CCC(=O)O)C(=O)N[C@@H](Cc1ccccc1)C(=O)N[C@H](C(=O)N[C@@H](CCC(=O)O)C(=O)N[C@@H](Cc1c[nH]c2ccccc12)C(=O)N[C@@H](CC(C)C)C(=O)N[C@@H](CCCCN)C(=O)N[C@@H](CC(N)=O)C(=O)N[C@H](C(=O)NCC(=O)N1CCC[C@H]1C(=O)N[C@@H](CO)C(=O)N[C@@H](CO)C(=O)NCC(=O)N[C@@H](C)C(=O)N1CCC[C@H]1C(=O)N1CCC[C@H]1C(=O)N1CCC[C@H]1C(=O)N[C@@H](CO)C(N)=O)[C@@H](C)O)[C@@H](C)CC)C(=O)O) [SEQ ID NO: 11],EC50 hGLP-1 R [pM] (cAMP formation),human GLP-1 receptor [3],5.1 pM
same,EC50 hGIP R [pM] (cAMP formation),human GIP receptor [4],7 pM
same,EC50 hGLUC R [pM] (cAMP formation),human glucagon receptor,3160 pM
same,EC50 hGLP-1 R [pM] (cAMP formation),human GLP-1 receptor [5],5.1 pM
same,EC50 hGIPR [pM] (cAMP formation),human GIP receptor [6],7 pM
Y[Aib]QGTFTSDLSIQK([γGlu-Stearoyl])DEQRA[αMeOrn]EFIEWLKAGGPSSGAPPPS-NH2 (N-terminus assumed; SMILES CCCCCCCCCCCCCCCCCC(=O)N[C@@H](CCC(=O)NCCCC[C@H](NC(=O)[C@H](CCC(N)=O)NC(=O)[C@@H](NC(=O)[C@H](CO)NC(=O)[C@H](CC(C)C)NC(=O)[C@H](CC(=O)O)NC(=O)[C@H](CO)NC(=O)[C@@H](NC(=O)[C@H](Cc1ccccc1)NC(=O)[C@@H](NC(=O)CNC(=O)[C@H](CCC(N)=O)NC(=O)C(C)(C)NC(=O)[C@@H](N)Cc1ccc(O)cc1)[C@@H](C)O)[C@@H](C)O)[C@@H](C)CC)C(=O)N[C@@H](CC(=O)O)C(=O)N[C@@H](CCC(=O)O)C(=O)N[C@@H](CCC(N)=O)C(=O)N[C@@H](CCCNC(=N)N)C(=O)N[C@@H](C)C(=O)N[C@@](C)(CCCN)C(=O)N[C@@H](CCC(=O)O)C(=O)N[C@@H](Cc1ccccc1)C(=O)N[C@H](C(=O)N[C@@H](CCC(=O)O)C(=O)N[C@@H](Cc1c[nH]c2ccccc12)C(=O)N[C@@H](CC(C)C)C(=O)N[C@@H](CCCCN)C(=O)N[C@@H](C)C(=O)NCC(=O)NCC(=O)N1CCC[C@H]1C(=O)N[C@@H](CO)C(=O)N[C@@H](CO)C(=O)NCC(=O)N[C@@H](C)C(=O)N1CCC[C@H]1C(=O)N1CCC[C@H]1C(=O)N1CCC[C@H]1C(=O)N[C@@H](CO)C(N)=O)[C@@H](C)CC)C(=O)O) [SEQ ID NO: 15],EC50 hGLP-1 R [pM] (cAMP formation),human GLP-1 receptor [3],16.1 pM
same,EC50 hGIP R [pM] (cAMP formation),human GIP receptor [4],8.9 pM
same,EC50 hGLUC R [pM] (cAMP formation),human glucagon receptor,4 pM
Y[Aib]EGTFTSDLSIQK([γGlu-Palmitoyl])EERAA[αMeK]EFIEWLKAGGPSSGAPPPS-NH2 (N-terminus assumed; SMILES CCCCCCCCCCCCCCCC(=O)N[C@@H](CCC(=O)NCCCC[C@H](NC(=O)[C@H](CCC(N)=O)NC(=O)[C@@H](NC(=O)[C@H](CO)NC(=O)[C@H](CC(C)C)NC(=O)[C@H](CC(=O)O)NC(=O)[C@H](CO)NC(=O)[C@@H](NC(=O)[C@H](Cc1ccccc1)NC(=O)[C@@H](NC(=O)CNC(=O)[C@H](CCC(=O)O)NC(=O)C(C)(C)NC(=O)[C@@H](N)Cc1ccc(O)cc1)[C@@H](C)O)[C@@H](C)O)[C@@H](C)CC)C(=O)N[C@@H](CCC(=O)O)C(=O)N[C@@H](CCC(=O)O)C(=O)N[C@@H](CCCNC(=N)N)C(=O)N[C@@H](C)C(=O)N[C@@H](C)C(=O)N[C@@](C)(CCCCN)C(=O)N[C@@H](CCC(=O)O)C(=O)N[C@@H](Cc1ccccc1)C(=O)N[C@H](C(=O)N[C@@H](CCC(=O)O)C(=O)N[C@@H](Cc1c[nH]c2ccccc12)C(=O)N[C@@H](CC(C)C)C(=O)N[C@@H](CCCCN)C(=O)N[C@@H](C)C(=O)NCC(=O)NCC(=O)N1CCC[C@H]1C(=O)N[C@@H](CO)C(=O)N[C@@H](CO)C(=O)NCC(=O)N[C@@H](C)C(=O)N1CCC[C@H]1C(=O)N1CCC[C@H]1C(=O)N1CCC[C@H]1C(=O)N[C@@H](CO)C(N)=O)[C@@H](C)CC)C(=O)O) [SEQ ID NO: 16],EC50 hGLP-1 R [pM] (cAMP formation),human GLP-1 receptor [3],4.1 pM
same,EC50 hGIP R [pM] (cAMP formation),human GIP receptor [4],2.5 pM
same,EC50 hGLUC R [pM] (cAMP formation),human glucagon receptor,19800 pM
Y[Aib]EGTFTSDLSIQLEERAA[αMeK]EFIEWLKNTGPSSGAPPPS-NH2 (N-terminus assumed; SMILES CC[C@H](C)[C@H](NC(=O)[C@H](CO)NC(=O)[C@H](CC(C)C)NC(=O)[C@H](CC(=O)O)NC(=O)[C@H](CO)NC(=O)[C@@H](NC(=O)[C@H](Cc1ccccc1)NC(=O)[C@@H](NC(=O)CNC(=O)[C@H](CCC(=O)O)NC(=O)C(C)(C)NC(=O)[C@@H](N)Cc1ccc(O)cc1)[C@@H](C)O)[C@@H](C)O)C(=O)N[C@@H](CCC(N)=O)C(=O)N[C@@H](CC(C)C)C(=O)N[C@@H](CCC(=O)O)C(=O)N[C@@H](CCC(=O)O)C(=O)N[C@@H](CCCNC(=N)N)C(=O)N[C@@H](C)C(=O)N[C@@H](C)C(=O)N[C@@](C)(CCCCN)C(=O)N[C@@H](CCC(=O)O)C(=O)N[C@@H](Cc1ccccc1)C(=O)N[C@H](C(=O)N[C@@H](CCC(=O)O)C(=O)N[C@@H](Cc1c[nH]c2ccccc12)C(=O)N[C@@H](CC(C)C)C(=O)N[C@@H](CCCCN)C(=O)N[C@@H](CC(N)=O)C(=O)N[C@H](C(=O)NCC(=O)N1CCC[C@H]1C(=O)N[C@@H](CO)C(=O)N[C@@H](CO)C(=O)NCC(=O)N[C@@H](C)C(=O)N1CCC[C@H]1C(=O)N1CCC[C@H]1C(=O)N1CCC[C@H]1C(=O)N[C@@H](CO)C(N)=O)[C@@H](C)O)[C@@H](C)CC) [SEQ ID NO: 17],EC50 hGLP-1 R [pM] (cAMP formation),human GLP-1 receptor [5],5.9 pM
same,EC50 hGIPR [pM] (cAMP formation),human GIP receptor [6],163 pM
